According to patent publication CN110623921A (BEIJING DONGFANG BIOTECH CO LTD, dated 2019):

Key:
CD19 (细胞表面CD19, Raji细胞) [1] = biological target: T1, CD19 (细胞表面CD19, Raji细胞) (UniProt P15391 20-556, limits assumed); assay: flow cytometry on Raji cells, Alexa488 anti-human IgG-Fc, MFI fitted in GraphPad Prism
T1 construct: whole, on cells; also called CD19抗原; CD19阳性的Raji细胞
T1 sequence (looked up): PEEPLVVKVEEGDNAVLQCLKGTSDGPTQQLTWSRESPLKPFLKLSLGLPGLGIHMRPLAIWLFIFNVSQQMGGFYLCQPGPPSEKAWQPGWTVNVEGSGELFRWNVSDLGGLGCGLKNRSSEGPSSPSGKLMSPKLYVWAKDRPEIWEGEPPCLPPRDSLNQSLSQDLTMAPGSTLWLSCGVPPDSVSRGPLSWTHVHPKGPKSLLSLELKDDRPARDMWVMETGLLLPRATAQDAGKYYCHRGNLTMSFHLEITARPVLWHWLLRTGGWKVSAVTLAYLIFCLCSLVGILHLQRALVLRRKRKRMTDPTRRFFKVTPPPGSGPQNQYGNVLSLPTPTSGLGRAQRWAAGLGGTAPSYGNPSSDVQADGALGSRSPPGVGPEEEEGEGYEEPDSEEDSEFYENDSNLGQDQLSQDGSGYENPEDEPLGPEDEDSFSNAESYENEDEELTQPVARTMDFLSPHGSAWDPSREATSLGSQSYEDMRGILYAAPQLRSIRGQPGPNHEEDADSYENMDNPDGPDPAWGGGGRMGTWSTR

CD19 (细胞表面CD19, Raji细胞) [2] = biological target: T1, CD19 (细胞表面CD19, Raji细胞); assay: cell-based or functional assay
CD3 (细胞表面CD3, Jurkat细胞) = biological target: T2, CD3 (细胞表面CD3, Jurkat细胞); assay: flow cytometry on Jurkat cells, Alexa488 anti-human IgG-Fc, MFI fitted in GraphPad Prism
T2 construct: whole, on cells; also called CD3抗原; CD3阳性的Jurkat细胞
T2 sequence (P07766 23-207): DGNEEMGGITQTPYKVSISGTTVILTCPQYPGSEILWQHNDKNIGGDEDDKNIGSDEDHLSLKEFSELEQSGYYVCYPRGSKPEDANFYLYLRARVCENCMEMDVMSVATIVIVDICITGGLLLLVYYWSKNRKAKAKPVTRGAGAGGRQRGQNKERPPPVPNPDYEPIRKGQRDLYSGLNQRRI

| Binder | EC50 (CD19 (细胞表面CD19, Raji细胞) [1]) | EC50 of PBMC-mediated killing of Raji cells (LDH release) (CD19 (细胞表面CD19, Raji细胞) [2]) | EC50 (CD3 (细胞表面CD3, Jurkat细胞)) |
| --- | --- | --- | --- |
| 抗CD3和抗CD19双特异性抗体JY039 (bispecific antibody) chain 1: not shown chain 2: not shown chain 3: QVQLQQSGAELVRPGSSVKISCKASGYAFSSYWMNWVKQRPGQGLEWIGQIWPGDGDTNYNGKFKGKATLTADESSSTAYMQLSSLASEDSAVYFCARRETTTVGRYYYAMDYWGQGTTVTVSS chain 4: DIQLTQSPASLAVSLGQRATISCKASQSVDYDGDSYLNWYQQIPGQPPKLLIYDASNLVSGIPPRFSGSGSGTDFTLNIHPVEKVDAATYHCQQSTEDPWTFGGGTKLEIK | 1020 pM | 1.26 pM | 21600 pM |
| 抗CD19的单克隆抗体 (JY039的抗CD19序列构建) (antibody, V domains shown, also called AntiCD19McAb; 抗CD19单克隆抗体) VH: QVQLQQSGAELVRPGSSVKISCKASGYAFSSYWMNWVKQRPGQGLEWIGQIWPGDGDTNYNGKFKGKATLTADESSSTAYMQLSSLASEDSAVYFCARRETTTVGRYYYAMDYWGQGTTVTVSS VL: DIQLTQSPASLAVSLGQRATISCKASQSVDYDGDSYLNWYQQIPGQPPKLLIYDASNLVSGIPPRFSGSGSGTDFTLNIHPVEKVDAATYHCQQSTEDPWTFGGGTKLEIK | 191 pM | 222 pM | – |
